# Data: patent US20170226203A1 (Daiichi Sankyo, published 2017)
# Legend:
# human Orai1 [1] = target: T1, human Orai1 (human, UniProt Q96D31 1-301); experiment: cell-based or functional assay
# human Orai1 [2] = target: T1, human Orai1; experiment: flow cytometry, pcDNA3.1-hOrai1 transfected HEK293T cells
# T1 sequence (Q96D31 whole entry): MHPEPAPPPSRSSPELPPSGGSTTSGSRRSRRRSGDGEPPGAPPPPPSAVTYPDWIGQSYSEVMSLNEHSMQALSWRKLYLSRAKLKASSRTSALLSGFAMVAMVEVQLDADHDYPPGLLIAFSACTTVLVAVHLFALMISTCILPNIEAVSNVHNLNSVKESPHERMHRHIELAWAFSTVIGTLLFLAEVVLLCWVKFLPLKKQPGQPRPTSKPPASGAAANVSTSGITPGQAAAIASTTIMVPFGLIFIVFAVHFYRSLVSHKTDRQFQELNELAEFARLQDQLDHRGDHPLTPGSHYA
"IC50, IFN-γ release from human PBMC treated with PMA and A23187 (human Orai1 [1]) [µg/mL]","IC50, IL-2 release from Jurkat cells treated with PMA and A23187 (human Orai1 [1]) [µg/mL]","IC50, IL-2 release from human PBMC treated with PMA and A23187 (human Orai1 [1]) [µg/mL]","IC80, IFN-γ release from human PBMC treated with PMA and A23187 (human Orai1 [1]) [µg/mL]","IC80, IL-2 release from Jurkat cells treated with PMA and A23187 (human Orai1 [1]) [µg/mL]","IC80, IL-2 release from human PBMC treated with PMA and A23187 (human Orai1 [1]) [µg/mL]",binding result (human Orai1 [2]),Binder
≤ 0.04,≤ 0.01,≤ 0.02,≤ 2,≤ 0.2,≤ 0.4,,"affinity maturation antibody hR198_HG1/LG1 (antibody, human IgG1, kappa) heavy: not shown light: DIQLTQSPSSLSASVGDRVTITCRASQSIGGSLSWFQQKPGKAPKRLIYSTSTLESGVPSRFSGSGSGTDYTLTISSLQPEDFAMYYCLQFAIFPDSFGQGTKVEIKRTVAAPSVFIFPPSDEQLKSGTASVVCLLNNFYPREAKVQWKVDNALQSGNSQESVTEQDSKDSTYSLSSTLTLSKADYEKHKVYACEVTHQGLSSPVTKSFNRGEC"
≤ 0.04,≤ 0.01,≤ 0.02,≤ 2,≤ 0.2,≤ 0.4,,"hR198_HG1-LALA/LG1 (antibody, human IgG1, kappa, L234A L235A) heavy: not shown light: DIQLTQSPSSLSASVGDRVTITCRASQSIGGSLSWFQQKPGKAPKRLIYSTSTLESGVPSRFSGSGSGTDYTLTISSLQPEDFAMYYCLQFAIFPDSFGQGTKVEIKRTVAAPSVFIFPPSDEQLKSGTASVVCLLNNFYPREAKVQWKVDNALQSGNSQESVTEQDSKDSTYSLSSTLTLSKADYEKHKVYACEVTHQGLSSPVTKSFNRGEC"
,,,,,,binds,"humanized anti-human Orai1 antibody hR198_H4/L4 (antibody, human IgG1, kappa, V domains shown, Human IgG1 / kappa; also called hH4/L4) VH: QVQLVQSGAEVKKPGASVKVSCKASGYPVTAYYISWIRQAPGQGLEYVGYIDMGNGRTNYNARFKGRATLTVDKSTSTAYMELSSLRSEDTAVYYCARDSNWGVDYWGQGTLVTVSS VL: DIQLTQSPSSLSASVGDRVTITCRASQSIGNSLSWFQQKPGKAVKRLIYSTSTLESGVPSRFSGSGSGTDYTLTISSLQPEDFAMYYCLQFATFPDTFGQGTKVEIKR"
,,,,,,binds,"parent antibody Fab hR198_H4/L4-Fab (Fab, V domains shown, Fab of hR198_H4/L4) VH: QVQLVQSGAEVKKPGASVKVSCKASGYPVTAYYISWIRQAPGQGLEYVGYIDMGNGRTNYNARFKGRATLTVDKSTSTAYMELSSLRSEDTAVYYCARDSNWGVDYWGQGTLVTVSS VL: DIQLTQSPSSLSASVGDRVTITCRASQSIGNSLSWFQQKPGKAVKRLIYSTSTLESGVPSRFSGSGSGTDYTLTISSLQPEDFAMYYCLQFATFPDTFGQGTKVEI"
≥ 0.8,≥ 0.08,≥ 0.1,≥ 300,≥ 60,≥ 17,,"mouse anti-human Orai1 antibody 10F8 (antibody, mouse IgG1, kappa, V domains shown) VH: QVQLQQSGAELVRPGSSVKISCKASGYAFRSYWMNWVKQRPGQGLEWIGHIYPGDGDTNYNGKFKGKATLTADKSSSTAYMQLSSLTSEDSAVYLCGRGGTTVVVDYWGQGTTLTVSS VL: DIVMSQSPSSLAVSAGEKVTMSCKSSQSLLNSRTRKNYLAWYQQKPGQSPKLLIYWASTRESGVPDRFTGSGSGTDFTLTISSVQAEDLAVYYCKQSYNLPWTFGGGTKLEIKR"
≥ 0.8,≥ 0.08,≥ 0.1,≥ 300,≥ 60,≥ 17,,"mouse anti-human Orai1 antibody 14F74 (antibody, mouse IgG1, kappa, V domains shown) VH: QVQLQQSGAELVRPGSSVKISCKASGYAFSSYWMNWVKQRPGQGLEWIGHIYPGDGDTNYNGKFKGKATLTADKSSSTAYMQLSGLTSEDSAVYFCARSGRLRFAMDYWGQGTSVTVSS VL: DIVMSQSPSSLAVSAGEKVTMSCKSSQSLLNSRTRKNYLAWYQQKPGQSPKLLIYWASTRESGVPDRFTGSGSGTDFTLTISSVQAEDLAVYYCKQSYNLRTFGGGTKLEIQR"
≥ 0.8,≥ 0.08,≥ 0.1,≥ 300,≥ 60,≥ 17,,"mouse anti-human Orai1 antibody 17F6 (antibody, mouse IgG1, kappa, V domains shown) VH: QVQLQQSGAELVRPGSSVKISCKASGYAFSSYWMNWVKQRPGQGLEWIGHIYPGDADTNYNGKFKGKATLTADKSSSTAYMHLSSLTSEDSAVYFCSRQLGFRYAMDYWGQGTSVTVSS VL: DIVMSQSPSSLAVSAGEKVTMSCKSSQSLLNSRTRKNYLAWYQQKPGQSPKLLIYWASTRESGVPDRFTGSGSGTDFTLTISSVQAEDLAVYYCKQSYNLRTFGGGTKLEIKR"
≥ 0.8,≥ 0.08,≥ 0.1,≥ 300,≥ 60,≥ 17,,"human anti-human Orai1 antibody 5H3.1 (antibody, human IgG2, lambda, V domains shown) VH: QVQLVQSGAEVKKPGASVKVSCKASGYTFTDYYMNWVRQAPGQGLEWMGWINPNSGGTKYAQKFQGRVTMTRDTSIRTAYMELSRLRSDDTAVYYCAREYGGNSDWFDPWGQGTLVTVSS VL: QSVLTQPPSVSGAPGQRVTISCTGSSSNIGAGYDVHWYQQLPGTAPKLLIYGNSNRPSGVPDRFSGSKSGTSASLAITGLQAEDEADYYCQSYDNRLSDSVVIGGGTKLAVQG"
≥ 0.8,≥ 0.08,≥ 0.1,≥ 300,≥ 60,≥ 17,,"human anti-human Orai1 antibody 2C1.1 (antibody, human IgG2, lambda, V domains shown) VH: QVQLQQWGAGLLKPSETLSLTCAVYGGSFSGYYWSWIRQPPGKGLEWIGEIDHSGSTNYNPALKSRLTISVDTSKNQFSLKLSSVTAADTAVYYCARAGSGGYEDWFDPWGQGTLVTVSS VL: QSVLTQPPSVSGAPGQRVTISCTGSSSNIGAGYNVHWYQQFPRTDPKLLIYVYNIRPSGVPDRFSGSRSGTSASLAITGLQTEDEADYYCQSYDSSLSGVVFGGGTKLTVLG"
